Assay results: patent US20060234940A1
Where no end group is shown, it is not given here. The star is where a group is joined. Thia = thiazolidide, C1CN(*)CS1

Legend:
[1] = molecular target: recombinant human DP IV, wild type (human) (UniProt P27487); assay: MALDI-TOF MS, inhibition of DP IV-catalyzed truncation of the substrate GIP after preincubation with TFTSDY
[2] = molecular target: recombinant human DP IV, wild type (human) (UniProt P27487); assay: MALDI-TOF MS, inhibition of DP IV-catalyzed truncation of the substrate PACAP-27 after preincubation with TFTSDY
[3] = molecular target: recombinant human DP IV, wild type (human) (UniProt P27487); assay: MALDI-TOF MS, inhibition of DP IV-catalyzed truncation of the substrate PACAP-38 after preincubation with TFTSDY
[4] = molecular target: recombinant human DP IV, wild type (human) (UniProt P27487); assay: MALDI-TOF MS, inhibition of DP IV-catalyzed truncation of the substrate glucagon after preincubation with TFTSDY
[5] = molecular target: recombinant human DP IV, wild type (human) (UniProt P27487); assay: photometric assay, competition with the standard substrate GP-4NA

recombinant human DP IV, wild type (human), sequence (P27487 other isoform, or with tags, fused parts or gaps): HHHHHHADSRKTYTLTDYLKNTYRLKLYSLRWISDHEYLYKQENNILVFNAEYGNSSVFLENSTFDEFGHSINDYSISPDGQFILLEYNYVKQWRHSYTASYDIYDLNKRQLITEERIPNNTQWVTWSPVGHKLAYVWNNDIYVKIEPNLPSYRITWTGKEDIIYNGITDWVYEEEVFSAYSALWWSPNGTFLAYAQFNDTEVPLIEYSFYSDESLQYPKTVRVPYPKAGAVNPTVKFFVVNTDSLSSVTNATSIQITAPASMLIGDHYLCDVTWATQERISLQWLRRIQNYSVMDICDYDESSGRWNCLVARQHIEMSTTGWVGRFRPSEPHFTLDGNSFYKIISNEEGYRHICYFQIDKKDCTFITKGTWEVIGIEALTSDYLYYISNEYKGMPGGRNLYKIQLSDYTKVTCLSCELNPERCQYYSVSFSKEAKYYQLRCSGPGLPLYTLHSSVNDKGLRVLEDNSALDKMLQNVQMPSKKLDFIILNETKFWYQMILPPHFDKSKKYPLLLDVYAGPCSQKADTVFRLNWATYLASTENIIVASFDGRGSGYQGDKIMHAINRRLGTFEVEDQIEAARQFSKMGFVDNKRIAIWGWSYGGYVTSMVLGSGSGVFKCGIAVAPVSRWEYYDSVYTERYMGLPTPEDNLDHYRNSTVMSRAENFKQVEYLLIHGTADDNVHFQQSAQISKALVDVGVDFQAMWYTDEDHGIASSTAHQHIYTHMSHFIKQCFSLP

Ki [1]	Ki [2]	Ki [3]	Ki [4]	Ki [5]	Binder
14 µM	26.7 µM	2.8 µM	3.7 µM	–	TFTSDY [hexapeptide TFTSDY]
–	–	–	–	0.0351 µM	YAESTF-NH2 [YAESTF amide]
–	–	–	–	0.0508 µM	RRLSYSRRRFE-Thia (also: linkage of decapeptide to Glu not explained) [Transp 01 (…-E-Thia)]
–	–	–	–	38.3 µM	HSDGIFTDSYSRYRKQMAVKKYLAAVLGKRYKQRVKNK (peptide, UniProt P18509 132-169, looked up, ends and bridges not checked) [PACAP-38]
